This note sets out measurements from patent US20220289828A1.

Experiment [1] deals with Enterovirus D68 US/MO/14-18947 virus particle (B1 clade) (Enterovirus D68). As to the kind of experiment: cryo-EM structure.
Experiment [2] has the same target. In words: cryo-EM of Fab with B1 clade virus.
The target in experiment [3] is B1 clade EV-D68 isolate (Enterovirus D68). As to the kind of experiment: cell-based or functional assay.

B1: Fab EV68-228 (Fab, V domains shown)
VH: QVQLQESGPGLVKPSETLSLTCTVSGYLISNGYYWGWIRQSPGKGLEWIGSIYYTRDTYYNWSLKSRITISVDTSKKQFSLKLYSVTAADTAVYYCVRHEGSCNDGSCYGSFVDNWGQGTLVTVSS
VL: DIQMTQSPSSVSASVGDRVTLTCRASQDISSWLAWYQQKPGKAPKLLIYAASSLQSGVPSRFSGSGSGTHFTLTISSLQPEDFATYFCQQADSFITFGGGTKVEIK
In experiment [1], B1 gave a share of the masked surface area from the heavy chain of 84% and a viral surface area masked by each Fab of 1170 Å^2. Besides, the copies of Fab bound to the virus particle in experiment [2] is 60 copies.

B2: mAb EV68-159 (antibody, V domains shown)
VH: EVQLVESGGGLVKPGGSLRLSCAASGFTFSTYIMTWVRQAPGRGLEWVSSISTSSVYTFYADSLKGRFTISRDNAKNSVYLQMNSLRADDTAVYYCAREEGFRAYNLYWGQGTLVTVSS
VL: QSVLTQPPSASGTPGQRVTISCSGSSSNIEYNYVYWYQKFPGTAPKLLIYKNNQRPSGVPDRFSGSKSGTSASLAISGLRSEDEGDYYCAAWDDILSGVVFGGGTKLTVL
Take B2: the IC50 in a CCID50 neutralization assay in experiment [3] was 0.32 ng/mL.

B3: Fab EV68-159 (Fab, V domains shown)
VH: B2 VH
VL: B2 VL
For the molecule B3, in experiment [1], the share of the masked surface area from the heavy chain is 77% and the viral surface area masked by each Fab turned out to be 990 Å^2. This molecule displayed a copies of Fab bound to the virus particle in experiment [2] of 60 copies.
